# According to patent publication US20160046728:
# T1: Ir-CPI (Ixodes ricinus Contact Phase Inhibitor), recombinant
# T1 chain: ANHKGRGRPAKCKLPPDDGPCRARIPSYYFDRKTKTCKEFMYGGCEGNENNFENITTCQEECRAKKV
# B1: factor XIIa (protein)
# chain: IPPWEAPKEHKYKAEEHTVVLTVTGEPCHFPFQYHRQLYHKCTHKGRPGPQPWCATTPNFDQDQRWGYCLEPKKVKDHCSKHSPCQKGGTCVNMPSGPHCLCPQHLTGNHCQKEKCFEPQLLRFFHKNEIWYRTEQAAVARCQCKGPDAHCQRLASQACRTNPCLHGGRCLEVEGHRLCHCPVGYTGAFCDVDTKASCYDGRGLSYRGLARTTLSGAPCQPWASEATYRNVTAEQARNWGLGGHAFCRNPDNDIRPWCFVLNRDRLSWEYCDLAQCQTPTQAAPPTPVSPRLHVPLMPAQPAPPKPQPTTRTPPQSQTPGALPAKREQPPSLTRNGPLSCGQRLRKSLSSMTRVVGGLVALRGAHPYIAALYWGHSFCAGSLIAPCWVLTAAHCLQDRPAPEDLTVVLGQERRNHSCEPCQTLAVRSYRLHEAFSPVSYQHDLALLRLQEDADGSCALLSPYVQPVCLPSGAARPSETTLCQVAGWGHQFEGAEEYASFLQEAQVPFLSLERCSAPDVHGSSILPGMLCAGFLEGGTDACQGDSGGPLVCEDQAAERRLTLQGIISWGSGCGDRNKPGVYTDVAYYLAWIREHTVS
# B2: factor Xa (protein)
# chain 1: ANSFLEEMKKGHLERECMEETCSYEEAREVFEDSDKTNEFWNKYKDGDQCETSPCQNQGKCKDGLGEYTCTCLEGFEGKNCELFTRKLCSLDNGDCDQFCHEEQNSVVCSCARGYTLADNGKACIPTGPYPCGKQTLER
# chain 2: IVGGQECKDGECPWQALLINEENEGFCGGTILSEFYILTAAHCLYQAKRFKVRVGDRNTEQEEGGEAVHEVEVVIKHNRFTKETYDFDIAVLRLKTPITFRMNVAPACLPERDWAESTLMTQKTGIVSGFGRTHEKGRQSTRLKMLEVPYVDRNSCKLSSSFIITQNMFCAGYDTKQEDACQGDSGGPHVTRFKDTYFVTGIVSWGEGCARKGKYGIYTKVTAFLKWIDRSMKTRGLPKAKSHAPEVITSSPLK
# B3: factor VIIa (protein)
# chain: ANAFLEELRPGSLERECKEEQCSFEEAREIFKDAERTKLFWISYSDGDQCASSPCQNGGSCKDQLQSYICFCLPAFEGRNCETHKDDQLICVNENGGCEQYCSDHTGTKRSCRCHEGYSLLADGVSCTPTVEYPCGKIPILEKRNASKPQGRIVGGKVCPKGECPWQVLLLVNGAQLCGGTLINTIWVVSAAHCFDKIKNWRNLIAVLGEHDLSEHDGDEQSRRVAQVIIPSTYVPGTTNHDIALLRLHQPVVLTDHVVPLCLPERTFSERTLAFVRFSLVSGWGQLLDRGATALELMVLNVPRLMTQDCLQQSRKVGDSPNITEYMFCAGYSDGSKDSCKGDSGGPHATHYRGTWYLTGIVSWGQGCATVGHFGVYTRVSQYIEWLQKLMRSEPRPGVLLRAPFP
# B4: t-PA (protein)
# chain: SYQVICRDEKTQMIYQQHQSWLRPVLRSNRVEYCWCNSGRAQCHSVPVKSCSEPRCFNGGTCQQALYFSDFVCQCPEGFAGKCCEIDTRATCYEDQGISYRGTWSTAESGAECTNWNSSALAQKPYSGRRPDAIRLGLGNHNYCRNPDRDSKPWCYVFKAGKYSSEFCSTPACSEGNSDCYFGNGSAYRGTHSLTESGASCLPWNSMILIGKVYTAQNPSAQALGLGKHNYCRNPDGDAKPWCHVLKNRRLTWEYCDVPSCSTCGLRQYSQPQFRIKGGLFADIASHPWQAAIFAKHRRSPGERFLCGGILISSCWILSAAHCFQERFPPHHLTVILGRTYRVVPGEEEQKFEVEKYIVHKEFDDDTYDNDIALLQLKSDSSRCAQESSVVRTVCLPPADLQLPDWTECELSGYGKHEALSPFYSERLKEAHVRLYPSSRCTSQHLLNRTVTDNMLCAGDTRSGGPQANLHDACQGDSGGPLVCLNDGRMTLVGIISWGLGCGQKDVPGVYTKVTNYLDWIRDNMRP
# B5: plasmin (protein)
# chain: KVYLSECKTGNGKNYRGTMSKTKNGITCQKWSSTSPHRPRFSPATHPSEGLEENYCRNPDNDPQGPWCYTTDPEKRYDYCDILECEEECMHCSGENYDGKISKTMSGLECQAWDSQSPHAHGYIPSKFPNKNLKKNYCRNPDRELRPWCFTTDPNKRWELCDIPRCTTPPPSSGPTYQCLKGTGENYRGNVAVTVSGHTCQHWSAQTPHTHNRTPENFPCKNLDENYCRNPDGKRAPWCHTTNSQVRWEYCKIPSCDSSPVSTEQLAPTAPPELTPVVQDCYHGDGQSYRGTSSTTTTGKKCQSWSSMTPHRHQKTPENYPNAGLTMNYCRNPDADKGPWCFTTDPSVRWEYCNLKKCSGTEASVVAPPPVVLLPDVETPSEEDCMFGNGKGYRGKRATTVTGTPCQDWAAQEPHRHSIFTPETNPRAGLEKNYCRNPDGDVGGPWCYTTNPRKLYDYCDVPQCAAPSFDCGKPQVEPKKCPGRVVGGCVAHPHSWPWQVSLRTRFGMHFCGGTLISPEWVLTAAHCLEKSPRPSSYKVILGAHQEVNLEPHVQEIEVSRLFLEPTRKDIALLKLSSPAVITDKVIPACLPSPNYVVADRTECFITGWGETQGTFGAGLLKEAQLPVIENKVCNRYEFLNGRVQSTELCAGHLAGGTDSCQGDSGGPLVCFEKDKYILQGVTSWGLGCARPNKPGVYVRVSRFVTWIEGVMRNN
# Biological target: T1, Ir-CPI (Ixodes ricinus Contact Phase …)
protein,measurement,value
B1,"activation of factor XI into factor XIa by factor XIIa (reconstituted system, purified factors, chromogenic substrate)",Ir-CPI inhibits ... the activation of factor XI into factor XIa by factor XIIa
same,"activation of prekallikrein into kallikrein by factor XIIa (reconstituted system, purified factors, chromogenic substrate)",Ir-CPI inhibits the activation of prekallikrein into kallikrein by factor XIIa
same,amidolytic activity on chromogenic substrate (protease:Ir-CPI 1:5),The results obtained did not show any effect of Ir-CPI protein on the amidolytic activity of these factors
B2,amidolytic activity on chromogenic substrate (protease:Ir-CPI 1:5),The results obtained did not show any effect of Ir-CPI protein on the amidolytic activity of these factors
B3,amidolytic activity on chromogenic substrate (protease:Ir-CPI 1:5),The results obtained did not show any effect of Ir-CPI protein on the amidolytic activity of these factors
B4,amidolytic activity on chromogenic substrate (protease:Ir-CPI 1:5),The results obtained did not show any effect of Ir-CPI protein on the amidolytic activity of these factors
B5,amidolytic activity on chromogenic substrate (protease:Ir-CPI 1:5),The results obtained did not show any effect of Ir-CPI protein on the amidolytic activity of these factors
